Data taken from patent publication CN115806612A (SHENZHEN KANGTI BIOMEDICAL TECH CO LTD, dated 2023).

Biological target: APP蛋白 (amyloid precursor protein, APP)
Experiment: SPR

APP蛋白 (amyloid precursor protein, APP), sequence (chain, as listed by the source): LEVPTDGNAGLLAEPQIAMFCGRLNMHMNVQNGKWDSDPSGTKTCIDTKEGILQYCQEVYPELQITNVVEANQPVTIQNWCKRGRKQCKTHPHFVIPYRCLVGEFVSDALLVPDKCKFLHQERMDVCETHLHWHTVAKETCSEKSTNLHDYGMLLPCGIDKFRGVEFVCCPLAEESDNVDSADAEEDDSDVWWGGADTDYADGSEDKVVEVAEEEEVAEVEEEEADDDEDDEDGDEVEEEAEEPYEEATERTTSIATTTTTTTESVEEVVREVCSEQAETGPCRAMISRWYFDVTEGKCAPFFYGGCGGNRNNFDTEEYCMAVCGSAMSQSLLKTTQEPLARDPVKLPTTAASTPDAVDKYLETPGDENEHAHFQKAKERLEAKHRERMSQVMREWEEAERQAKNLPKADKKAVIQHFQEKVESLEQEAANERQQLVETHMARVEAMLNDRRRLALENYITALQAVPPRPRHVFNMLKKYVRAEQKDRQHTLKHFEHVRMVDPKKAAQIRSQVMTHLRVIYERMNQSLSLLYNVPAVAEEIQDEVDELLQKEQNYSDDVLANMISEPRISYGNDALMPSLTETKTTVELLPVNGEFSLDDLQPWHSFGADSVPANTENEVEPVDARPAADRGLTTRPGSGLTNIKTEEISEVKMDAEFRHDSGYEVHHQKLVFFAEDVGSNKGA

B1: 纳米抗体P2-10C (anti-APP nanobody P2-10C) (VHH)
VHH: DVQLQESGGGLVQPGGSLRLSCAASGIIFSGYYMSWVRQAPGKGPEWVSSINPSGSSTRYADSVKGRFTISRDNAKNTVYLQMYSLKPEDTALYYCSRSRDGLGDVRGQGTQVTVSS
notes: Monovalent alpaca VHH expressed from pET22b in E. coli BL21 and purified on Ni resin and by size exclusion; also called 抗APP的纳米抗体; 抗APP单域重链抗体
  Kd: 70 nM
  koff: 0.00921 s⁻¹
  kon: 130000 M⁻¹ s⁻¹
